Data reported in PMC7926377.

What was measured:
[1] = target: Met-Gly-SplF-His6 (S. aureus strain 8325-4) (UniProt Q2FXC8)
[2] = target: T1, His6-SplF (S. aureus strain 8325-4) (UniProt Q2FXC8)
T1 sequence: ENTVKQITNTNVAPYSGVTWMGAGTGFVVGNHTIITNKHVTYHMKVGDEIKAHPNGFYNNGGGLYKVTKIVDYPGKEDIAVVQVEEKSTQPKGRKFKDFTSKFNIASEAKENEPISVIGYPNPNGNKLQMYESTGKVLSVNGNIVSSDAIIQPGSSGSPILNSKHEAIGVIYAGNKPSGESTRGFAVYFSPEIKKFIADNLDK

[3] = target: T2, SplF-His6 (S. aureus strain 8325-4) (UniProt Q2FXC8)
T2 sequence: T1 sequence

Q: Which results are given for ABZ-Tyr-Met-Leu-Ser-ANB-NH2 (peptide)?
A: KM of ABZ-Tyr-Met-Leu-Ser-ANB-NH2 hydrolysis (Michaelis-Menten fit, PBS, 37 °C) [1]: 18.2 µM; KM of ABZ-Tyr-Met-Leu-Ser-ANB-NH2 hydrolysis (Michaelis-Menten fit, PBS, 37 °C) [2]: 21.4 µM; KM of ABZ-Tyr-Met-Leu-Ser-ANB-NH2 hydrolysis (Michaelis-Menten fit, PBS, 37 °C) [3]: 30.8 µM
